# Measured values: IntAct's records for PubMed 18242179
# B1: Calcium/calmodulin-dependent protein kinase kinase 1 (Homo sapiens), Q8N5S9 (parent)
# chain: MEGGPAVCCQDPRAELVERVAAIDVTHLEEADGGPEPTRNGVDPPPRARAASVIPGSTSRLLPARPSLSARKLSLQERPAGSYLEAQAGPYATGPASHISPRAWRRPTIESHHVAISDAEDCVQLNQYKLQSEIGKGAYGVVRLAYNESEDRHYAMKVLSKKKLLKQYGFPRRPPPRGSQAAQGGPAKQLLPLERVYQEIAILKKLDHVNVVKLIEVLDDPAEDNLYLVFDLLRKGPVMEVPCDKPFSEEQARLYLRDVILGLEYLHCQKIVHRDIKPSNLLLGDDGHVKIADFGVSNQFEGNDAQLSSTAGTPAFMAPEAISDSGQSFSGKALDVWATGVTLYCFVYGKCPFIDDFILALHRKIKNEPVVFPEEPEISEELKDLILKMLDKNPETRIGVPDIKLHPWVTKNGEEPLPSEEEHCSVVEVTEEEVKNSVRLIPSWTTVILVKSMLRKRSFGNPFEPQARREERSMSAPGNLLVKEGFGEGGKSPELPGVQEDEAAS
# partner: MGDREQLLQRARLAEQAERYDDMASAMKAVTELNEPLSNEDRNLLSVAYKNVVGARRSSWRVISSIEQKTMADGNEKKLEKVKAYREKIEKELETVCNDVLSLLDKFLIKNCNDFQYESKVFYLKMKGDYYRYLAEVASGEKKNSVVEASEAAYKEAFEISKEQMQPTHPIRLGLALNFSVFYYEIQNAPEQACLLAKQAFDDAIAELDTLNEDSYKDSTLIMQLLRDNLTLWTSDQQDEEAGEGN
# Variants of: B1
# Details: with 1433f_human YWHAH
row,Variant,effect of a mutation on the interaction
1,S52A;T108A;S458A;S475A,decreasing interaction

# Variants of: B1
# Details: with 1433f_human YWHAH
# Remark: another data set of the same source
row,Variant,effect of a mutation on the interaction
1,S52A;S74A;S458A;S475A,disrupting interaction

# Variants of: B1
# Details: with 1433f_human YWHAH
# Remark: another data set of the same source
row,Variant,effect of a mutation on the interaction
1,S52A;S74A;T108A;S475A,disrupting interaction

# Variants of: B1
# Details: with 1433f_human YWHAH
# Remark: another data set of the same source
row,Variant,effect of a mutation on the interaction
1,S74A,disrupting interaction
2,S475A,disrupting interaction
